Laboratory results from publication PMC9352680, “A comprehensive thermodynamic model for RNA binding by the Saccharomyces cerevisiae Pumilio protein PUF4”.

Experiments:
[1] = target: T1, PUF4 RNA-binding domain (Pumilio homology domain) (Saccharomyces cerevisiae, UniProt P25339 537-888); test: EMSA (active-fraction titration); high salt: 2 mM MgCl2, 100 mM KOAc; 69% active protein; RNA-MaP: 20 mM Na-HEPES pH 7.4, 0.1% Tween-20, 5% glycerol, 0.1 mg/mL BSA, 2 mM DTT, low salt 0.75 mM MgCl2 + 30 mM KOAc (model data; high salt 2 mM MgCl2 + 100 mM KOAc), 25 C; conditions: protein: recombinant; tags: C-terminal SNAP tag, Cy3B-labeled; N-terminal His tag removed with TEV; label: 32P (trace) plus unlabeled; single-stranded
T1 sequence: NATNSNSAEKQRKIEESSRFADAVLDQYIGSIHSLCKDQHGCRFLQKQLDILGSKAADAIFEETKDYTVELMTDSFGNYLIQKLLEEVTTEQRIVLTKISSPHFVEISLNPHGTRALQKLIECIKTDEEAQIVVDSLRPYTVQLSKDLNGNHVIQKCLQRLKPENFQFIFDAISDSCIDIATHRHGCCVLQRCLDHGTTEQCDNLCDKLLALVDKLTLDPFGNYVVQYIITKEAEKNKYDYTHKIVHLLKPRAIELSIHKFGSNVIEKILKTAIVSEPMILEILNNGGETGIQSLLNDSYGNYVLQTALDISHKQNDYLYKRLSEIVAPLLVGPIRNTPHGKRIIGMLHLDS

[2] = target: T1, PUF4 RNA-binding domain (Pumilio …); test: RNA-MaP; ddG 3.526; RNA-MaP: 20 mM Na-HEPES pH 7.4, 0.1% Tween-20, 5% glycerol, 0.1 mg/mL BSA, 2 mM DTT, low salt 0.75 mM MgCl2 + 30 mM KOAc (model data; high salt 2 mM MgCl2 + 100 mM KOAc), 25 C; conditions: protein: recombinant; tags: C-terminal SNAP tag, Cy3B-labeled; N-terminal His tag removed with TEV; label: array RNA; single-stranded
[3] = target: T1, PUF4 RNA-binding domain (Pumilio …); test: RNA-MaP; ddG 1.591; RNA-MaP: 20 mM Na-HEPES pH 7.4, 0.1% Tween-20, 5% glycerol, 0.1 mg/mL BSA, 2 mM DTT, low salt 0.75 mM MgCl2 + 30 mM KOAc (model data; high salt 2 mM MgCl2 + 100 mM KOAc), 25 C; conditions: protein: recombinant; tags: C-terminal SNAP tag, Cy3B-labeled; N-terminal His tag removed with TEV; label: array RNA; single-stranded
[4] = target: T1, PUF4 RNA-binding domain (Pumilio …); test: RNA-MaP; ddG 1.315; RNA-MaP: 20 mM Na-HEPES pH 7.4, 0.1% Tween-20, 5% glycerol, 0.1 mg/mL BSA, 2 mM DTT, low salt 0.75 mM MgCl2 + 30 mM KOAc (model data; high salt 2 mM MgCl2 + 100 mM KOAc), 25 C; conditions: protein: recombinant; tags: C-terminal SNAP tag, Cy3B-labeled; N-terminal His tag removed with TEV; label: array RNA; single-stranded
[5] = target: T1, PUF4 RNA-binding domain (Pumilio …); test: RNA-MaP; ddG 2.995; RNA-MaP: 20 mM Na-HEPES pH 7.4, 0.1% Tween-20, 5% glycerol, 0.1 mg/mL BSA, 2 mM DTT, low salt 0.75 mM MgCl2 + 30 mM KOAc (model data; high salt 2 mM MgCl2 + 100 mM KOAc), 25 C; conditions: protein: recombinant; tags: C-terminal SNAP tag, Cy3B-labeled; N-terminal His tag removed with TEV; label: array RNA; single-stranded
[6] = target: T1, PUF4 RNA-binding domain (Pumilio …); test: RNA-MaP; ddG 1.641; RNA-MaP: 20 mM Na-HEPES pH 7.4, 0.1% Tween-20, 5% glycerol, 0.1 mg/mL BSA, 2 mM DTT, low salt 0.75 mM MgCl2 + 30 mM KOAc (model data; high salt 2 mM MgCl2 + 100 mM KOAc), 25 C; conditions: protein: recombinant; tags: C-terminal SNAP tag, Cy3B-labeled; N-terminal His tag removed with TEV; label: array RNA; single-stranded
[7] = target: T1, PUF4 RNA-binding domain (Pumilio …); test: RNA-MaP; ddG 1.018; RNA-MaP: 20 mM Na-HEPES pH 7.4, 0.1% Tween-20, 5% glycerol, 0.1 mg/mL BSA, 2 mM DTT, low salt 0.75 mM MgCl2 + 30 mM KOAc (model data; high salt 2 mM MgCl2 + 100 mM KOAc), 25 C; conditions: protein: recombinant; tags: C-terminal SNAP tag, Cy3B-labeled; N-terminal His tag removed with TEV; label: array RNA; single-stranded
[8] = target: T1, PUF4 RNA-binding domain (Pumilio …); test: RNA-MaP; ddG 0.390; RNA-MaP: 20 mM Na-HEPES pH 7.4, 0.1% Tween-20, 5% glycerol, 0.1 mg/mL BSA, 2 mM DTT, low salt 0.75 mM MgCl2 + 30 mM KOAc (model data; high salt 2 mM MgCl2 + 100 mM KOAc), 25 C; conditions: protein: recombinant; tags: C-terminal SNAP tag, Cy3B-labeled; N-terminal His tag removed with TEV; label: array RNA; single-stranded
[9] = target: T1, PUF4 RNA-binding domain (Pumilio …); test: RNA-MaP; ddG 0.243; RNA-MaP: 20 mM Na-HEPES pH 7.4, 0.1% Tween-20, 5% glycerol, 0.1 mg/mL BSA, 2 mM DTT, low salt 0.75 mM MgCl2 + 30 mM KOAc (model data; high salt 2 mM MgCl2 + 100 mM KOAc), 25 C; conditions: protein: recombinant; tags: C-terminal SNAP tag, Cy3B-labeled; N-terminal His tag removed with TEV; label: array RNA; single-stranded
[10] = target: T1, PUF4 RNA-binding domain (Pumilio …); test: RNA-MaP; ddG 1.467; RNA-MaP: 20 mM Na-HEPES pH 7.4, 0.1% Tween-20, 5% glycerol, 0.1 mg/mL BSA, 2 mM DTT, low salt 0.75 mM MgCl2 + 30 mM KOAc (model data; high salt 2 mM MgCl2 + 100 mM KOAc), 25 C; conditions: protein: recombinant; tags: C-terminal SNAP tag, Cy3B-labeled; N-terminal His tag removed with TEV; label: array RNA; single-stranded
[11] = target: T1, PUF4 RNA-binding domain (Pumilio …); test: RNA-MaP; ddG 3.256; RNA-MaP: 20 mM Na-HEPES pH 7.4, 0.1% Tween-20, 5% glycerol, 0.1 mg/mL BSA, 2 mM DTT, low salt 0.75 mM MgCl2 + 30 mM KOAc (model data; high salt 2 mM MgCl2 + 100 mM KOAc), 25 C; conditions: protein: recombinant; tags: C-terminal SNAP tag, Cy3B-labeled; N-terminal His tag removed with TEV; label: array RNA; single-stranded
[12] = target: T1, PUF4 RNA-binding domain (Pumilio …); test: RNA-MaP; ddG 1.827; RNA-MaP: 20 mM Na-HEPES pH 7.4, 0.1% Tween-20, 5% glycerol, 0.1 mg/mL BSA, 2 mM DTT, low salt 0.75 mM MgCl2 + 30 mM KOAc (model data; high salt 2 mM MgCl2 + 100 mM KOAc), 25 C; conditions: protein: recombinant; tags: C-terminal SNAP tag, Cy3B-labeled; N-terminal His tag removed with TEV; label: array RNA; single-stranded
[13] = target: T1, PUF4 RNA-binding domain (Pumilio …); test: RNA-MaP; ddG 3.923; RNA-MaP: 20 mM Na-HEPES pH 7.4, 0.1% Tween-20, 5% glycerol, 0.1 mg/mL BSA, 2 mM DTT, low salt 0.75 mM MgCl2 + 30 mM KOAc (model data; high salt 2 mM MgCl2 + 100 mM KOAc), 25 C; conditions: protein: recombinant; tags: C-terminal SNAP tag, Cy3B-labeled; N-terminal His tag removed with TEV; label: array RNA; single-stranded
[14] = target: T1, PUF4 RNA-binding domain (Pumilio …); test: RNA-MaP; ddG 0.613; RNA-MaP: 20 mM Na-HEPES pH 7.4, 0.1% Tween-20, 5% glycerol, 0.1 mg/mL BSA, 2 mM DTT, low salt 0.75 mM MgCl2 + 30 mM KOAc (model data; high salt 2 mM MgCl2 + 100 mM KOAc), 25 C; conditions: protein: recombinant; tags: C-terminal SNAP tag, Cy3B-labeled; N-terminal His tag removed with TEV; label: array RNA; single-stranded
[15] = target: T1, PUF4 RNA-binding domain (Pumilio …); test: RNA-MaP; ddG 0.961; RNA-MaP: 20 mM Na-HEPES pH 7.4, 0.1% Tween-20, 5% glycerol, 0.1 mg/mL BSA, 2 mM DTT, low salt 0.75 mM MgCl2 + 30 mM KOAc (model data; high salt 2 mM MgCl2 + 100 mM KOAc), 25 C; conditions: protein: recombinant; tags: C-terminal SNAP tag, Cy3B-labeled; N-terminal His tag removed with TEV; label: array RNA; single-stranded
[16] = target: T1, PUF4 RNA-binding domain (Pumilio …); test: RNA-MaP; ddG 0.934; RNA-MaP: 20 mM Na-HEPES pH 7.4, 0.1% Tween-20, 5% glycerol, 0.1 mg/mL BSA, 2 mM DTT, low salt 0.75 mM MgCl2 + 30 mM KOAc (model data; high salt 2 mM MgCl2 + 100 mM KOAc), 25 C; conditions: protein: recombinant; tags: C-terminal SNAP tag, Cy3B-labeled; N-terminal His tag removed with TEV; label: array RNA; single-stranded
[17] = target: T1, PUF4 RNA-binding domain (Pumilio …); test: RNA-MaP; ddG 1.663; RNA-MaP: 20 mM Na-HEPES pH 7.4, 0.1% Tween-20, 5% glycerol, 0.1 mg/mL BSA, 2 mM DTT, low salt 0.75 mM MgCl2 + 30 mM KOAc (model data; high salt 2 mM MgCl2 + 100 mM KOAc), 25 C; conditions: protein: recombinant; tags: C-terminal SNAP tag, Cy3B-labeled; N-terminal His tag removed with TEV; label: array RNA; single-stranded
[18] = target: T1, PUF4 RNA-binding domain (Pumilio …); test: RNA-MaP; ddG 3.533; RNA-MaP: 20 mM Na-HEPES pH 7.4, 0.1% Tween-20, 5% glycerol, 0.1 mg/mL BSA, 2 mM DTT, low salt 0.75 mM MgCl2 + 30 mM KOAc (model data; high salt 2 mM MgCl2 + 100 mM KOAc), 25 C; conditions: protein: recombinant; tags: C-terminal SNAP tag, Cy3B-labeled; N-terminal His tag removed with TEV; label: array RNA; single-stranded

Binder: AUGUGUAUAUUAGU (ssRNA) [consensus RNA 14-mer]
- binding result [1]: binds

Binder: UCUCUUUGUCUAUAUCUCUU (ssRNA) [S1a K3.1 A4C]
- Kd [2]: -8.09 ± 0.737 kcal/mol (dG=RTlnKd)

Binder: UCUCUUUGUAUACAUCUCUU (ssRNA) [S1a K3.1 T7C]
- Kd [3]: -10 ± 0.544 kcal/mol (dG=RTlnKd)

Binder: UCUCUUUGUAAAUAUCUCUU (ssRNA) [S1a K3.1 T5A]
- Kd [4]: -10.3 ± 0.252 kcal/mol (dG=RTlnKd)

Binder: UCUCUUUGUUUAUAUCUCUU (ssRNA) [S1a K3.1 A4T]
- Kd [5]: -8.62 ± 0.651 kcal/mol (dG=RTlnKd)

Binder: UCUCUUUGUAUCUAUCUCUU (ssRNA) [S1a K3.1 A6C]
- Kd [6]: -9.98 ± 0.415 kcal/mol (dG=RTlnKd)

Binder: UCUCUUUGUAUAUGUCUCUU (ssRNA) [S1a K3.1 A8G]
- Kd [7]: -10.6 ± 0.24 kcal/mol (dG=RTlnKd)

Binder: UCUCUUUGUACAUAUCUCUU (ssRNA) [S1a K3.1 T5C]
- Kd [8]: -11.2 ± 0.37 kcal/mol (dG=RTlnKd)

Binder: UCUCUUUGUAUAUUUCUCUU (ssRNA) [S1a K3.1 A8T]
- Kd [9]: -11.4 ± 0.257 kcal/mol (dG=RTlnKd)

Binder: UCUCUUUGUAUUUAUCUCUU (ssRNA) [S1a K3.1 A6T]
- Kd [10]: -10.2 ± 0.227 kcal/mol (dG=RTlnKd)

Binder: UCUCUUAGUAUAUAUCUCUU (ssRNA) [S1a K3.1 T1A]
- Kd [11]: -8.36 ± 0.617 kcal/mol (dG=RTlnKd)

Binder: UCUCUUUGUAUGUAUCUCUU (ssRNA) [S1a K3.1 A6G]
- Kd [12]: -9.79 ± 0.309 kcal/mol (dG=RTlnKd)

Binder: UCUCUUGGUAUAUAUCUCUU (ssRNA) [S1a K3.1 T1G]
- Kd [13]: -7.7 ± 0.635 kcal/mol (dG=RTlnKd)

Binder: UCUCUUUGUAUAUCAUCUCUU (ssRNA) [S1a K4.1 T8C]
- Kd [14]: -11 ± 0.259 kcal/mol (dG=RTlnKd)

Binder: UCUCUUUGUAUAUGAUCUCUU (ssRNA) [S1a K4.1 T8G]
- Kd [15]: -10.7 ± 0.299 kcal/mol (dG=RTlnKd)

Binder: UCUCUUUGUAUAUCUCUCUU (ssRNA) [S1a K3.1 A8C]
- Kd [16]: -10.7 ± 0.225 kcal/mol (dG=RTlnKd)

Binder: UCUCUUUGUAUAAAUCUCUU (ssRNA) [S1a K3.1 T7A]
- Kd [17]: -9.96 ± 0.7 kcal/mol (dG=RTlnKd)

Binder: UCUCUUCGUAUAUAUCUCUU (ssRNA) [S1a K3.1 T1C]
- Kd [18]: -8.09 ± 0.575 kcal/mol (dG=RTlnKd)
